From PMC10231827

What was measured:
[1] = target: S2P.OmiBA1-1208.H8 (SARS CoV-2 (Omicron BA.1)); assay: SEC
hACE2-Fc (human) = hACE2-Fc (human) (UniProt Q9BYF1); assay: BLI; ACE2-Fc (10 ug/ml in kinetic buffer) captured on anti-human IgG Fc capture (AHC) biosensors, S2P glycoproteins as analyte; 30°C; association 300 s, dissociation 300 s; 1:1 binding model

Substance | percent dissociated to a lower-order form after freeze-thaw [1] | Kd (hACE2-Fc (human)) | Req (hACE2-Fc (human)) | koff (hACE2-Fc (human)) | kon (hACE2-Fc (human))
S2P.OmiBA1-1208.H8 (domain or fragment) | 15% | – | – | – | –
S2P.OmiBA1-FHA (domain or fragment) | – | 0.641 nM | 0.35 nm | 0.00027 s⁻¹ | 420000 M⁻¹ s⁻¹
